Results on one substance are retold here after article PMC10137048.

For this test, the target named is amyloid beta (Aβ) peptide Aβ42.

For amyloid beta (Aβ) peptide Aβ42, the stoichiometry N was less than 4.

The term stoichiometry N denotes a count of units in the complex or per binding partner.
